Assays:
Assay in all cases: competition
Conditions in all cases: modification not given
hMC-4R (human), P32245 = target: hMC-4R (human), P32245
hMC-3R (human), P41968 = target: hMC-3R (human), P41968
hMC-5R (human), P33032 = target: hMC-5R (human), P33032
rhMC-4R (rhesus monkey) = target: T1, rhMC-4R (rhesus monkey)
T1 chain: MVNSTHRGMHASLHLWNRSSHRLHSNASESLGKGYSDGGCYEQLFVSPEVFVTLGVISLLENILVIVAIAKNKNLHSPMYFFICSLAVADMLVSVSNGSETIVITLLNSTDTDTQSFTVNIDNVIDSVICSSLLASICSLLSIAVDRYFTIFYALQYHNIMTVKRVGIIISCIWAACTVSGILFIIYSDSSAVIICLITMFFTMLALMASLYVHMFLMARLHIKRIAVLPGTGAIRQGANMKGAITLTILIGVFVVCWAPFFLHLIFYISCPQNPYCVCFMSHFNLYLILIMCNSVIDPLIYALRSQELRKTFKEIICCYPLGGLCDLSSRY

hMC-5R (human), P33032, sequence (P33032 whole entry): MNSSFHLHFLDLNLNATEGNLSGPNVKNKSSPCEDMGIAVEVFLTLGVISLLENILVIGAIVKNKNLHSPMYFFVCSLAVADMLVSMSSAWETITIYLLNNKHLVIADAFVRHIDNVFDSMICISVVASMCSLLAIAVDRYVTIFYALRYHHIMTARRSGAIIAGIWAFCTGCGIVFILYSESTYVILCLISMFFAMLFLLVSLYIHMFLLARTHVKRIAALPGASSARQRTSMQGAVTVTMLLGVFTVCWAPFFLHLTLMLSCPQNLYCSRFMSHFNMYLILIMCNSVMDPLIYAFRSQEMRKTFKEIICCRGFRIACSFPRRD
hMC-3R (human), P41968, sequence (P41968 whole entry): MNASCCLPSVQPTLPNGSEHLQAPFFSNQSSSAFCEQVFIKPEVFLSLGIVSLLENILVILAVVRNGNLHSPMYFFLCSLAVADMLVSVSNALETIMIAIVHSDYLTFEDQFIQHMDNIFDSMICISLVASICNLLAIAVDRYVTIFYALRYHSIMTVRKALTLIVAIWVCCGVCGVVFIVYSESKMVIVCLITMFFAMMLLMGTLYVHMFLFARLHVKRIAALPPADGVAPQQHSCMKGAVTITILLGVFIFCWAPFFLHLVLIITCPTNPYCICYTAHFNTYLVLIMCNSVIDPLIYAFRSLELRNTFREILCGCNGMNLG

Binder	IC50 (hMC-4R (human), P32245)	IC50 (hMC-3R (human), P41968)	IC50 (hMC-5R (human), P33032)	IC50 (rhMC-4R (rhesus monkey))
SYSMEHFRWGKPVGKKRRPVKVYPNGAEDESAEAFPLEF [ACTH1-39, P01189]	6 nM	6 nM	0.4 nM	1.3 nM
SYSMEHFRWGKPV [alpha-MSH, P01189]	–	–	–	27 nM

Source: patent US7029865
